PMC5561102, “Fusion protein analysis reveals the precise regulation between Hsp70 and Hsp100 during protein disaggregation” (Scientific Reports, 2017)
Values belong to the substance of their own block, whether it stands above or below them.

How the values were obtained:
ClpB (Escherichia coli) = ClpB (Escherichia coli) (UniProt P63284); details: cited from earlier work
[1] = target: TK-B (Thermus thermophilus) (UniProt Q56235)
[2] = target: TK_NBD-B (Thermus thermophilus) (UniProt Q56235)
[3] = target: TK_ΔSBDα_K69A-B (Thermus thermophilus) (UniProt Q56235)
[4] = target: TK_ΔSBDα_T195A-B (Thermus thermophilus) (UniProt Q56235)
[5] = target: TK_NBD-B (Thermus thermophilus) (UniProt Q56235); remark: listed apart in the source
Target sequence in this assay (Q56235 other isoform, or with tags, fused parts or gaps): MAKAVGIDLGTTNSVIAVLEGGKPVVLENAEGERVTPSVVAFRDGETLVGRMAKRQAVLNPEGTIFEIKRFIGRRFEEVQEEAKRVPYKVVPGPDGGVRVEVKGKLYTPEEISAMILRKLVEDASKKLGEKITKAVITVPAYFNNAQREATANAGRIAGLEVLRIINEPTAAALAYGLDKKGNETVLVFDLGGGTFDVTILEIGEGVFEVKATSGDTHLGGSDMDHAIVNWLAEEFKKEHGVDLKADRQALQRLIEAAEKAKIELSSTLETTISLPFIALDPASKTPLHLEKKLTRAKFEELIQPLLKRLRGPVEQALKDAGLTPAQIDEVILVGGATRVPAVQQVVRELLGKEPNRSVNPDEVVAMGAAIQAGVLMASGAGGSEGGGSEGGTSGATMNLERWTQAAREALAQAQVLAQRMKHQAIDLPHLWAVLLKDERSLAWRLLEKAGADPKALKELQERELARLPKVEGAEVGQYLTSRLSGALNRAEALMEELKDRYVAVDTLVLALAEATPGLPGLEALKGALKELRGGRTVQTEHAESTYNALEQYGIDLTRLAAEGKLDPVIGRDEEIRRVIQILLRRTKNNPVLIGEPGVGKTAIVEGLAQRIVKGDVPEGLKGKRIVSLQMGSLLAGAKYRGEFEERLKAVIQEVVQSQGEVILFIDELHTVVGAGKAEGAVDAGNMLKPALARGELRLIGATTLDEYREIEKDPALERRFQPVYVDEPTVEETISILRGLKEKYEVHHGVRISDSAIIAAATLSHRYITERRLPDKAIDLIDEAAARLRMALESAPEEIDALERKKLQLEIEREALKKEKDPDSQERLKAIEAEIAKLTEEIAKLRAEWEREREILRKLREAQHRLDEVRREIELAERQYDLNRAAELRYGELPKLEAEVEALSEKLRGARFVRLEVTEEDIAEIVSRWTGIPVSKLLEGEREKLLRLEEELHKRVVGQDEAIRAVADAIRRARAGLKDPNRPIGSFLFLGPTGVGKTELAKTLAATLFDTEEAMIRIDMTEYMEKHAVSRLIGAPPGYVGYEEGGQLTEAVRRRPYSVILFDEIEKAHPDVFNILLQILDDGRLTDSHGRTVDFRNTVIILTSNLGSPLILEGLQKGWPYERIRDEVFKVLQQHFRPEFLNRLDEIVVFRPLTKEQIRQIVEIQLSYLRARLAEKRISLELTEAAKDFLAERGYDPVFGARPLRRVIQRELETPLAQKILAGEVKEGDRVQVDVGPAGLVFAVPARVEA

[6] = target: TK_NBD_K69A-B (Thermus thermophilus) (UniProt Q56235)
[7] = target: TK_NBD_T195A-B (Thermus thermophilus) (UniProt Q56235)
[8] = target: TK_NBD-B (Thermus thermophilus) (UniProt Q56235); remark: listed apart in the source
Target sequence in this assay (Q56235 other isoform, or with tags, fused parts or gaps): as above

[9] = target: TK_NBD_K69A-B (Thermus thermophilus) (UniProt Q56235); remark: listed apart in the source
[10] = target: TK_NBD_T195A-B (Thermus thermophilus) (UniProt Q56235); remark: listed apart in the source

Sequence of Thermus thermophilus DnaK (TDnaK) (Q56235 whole entry): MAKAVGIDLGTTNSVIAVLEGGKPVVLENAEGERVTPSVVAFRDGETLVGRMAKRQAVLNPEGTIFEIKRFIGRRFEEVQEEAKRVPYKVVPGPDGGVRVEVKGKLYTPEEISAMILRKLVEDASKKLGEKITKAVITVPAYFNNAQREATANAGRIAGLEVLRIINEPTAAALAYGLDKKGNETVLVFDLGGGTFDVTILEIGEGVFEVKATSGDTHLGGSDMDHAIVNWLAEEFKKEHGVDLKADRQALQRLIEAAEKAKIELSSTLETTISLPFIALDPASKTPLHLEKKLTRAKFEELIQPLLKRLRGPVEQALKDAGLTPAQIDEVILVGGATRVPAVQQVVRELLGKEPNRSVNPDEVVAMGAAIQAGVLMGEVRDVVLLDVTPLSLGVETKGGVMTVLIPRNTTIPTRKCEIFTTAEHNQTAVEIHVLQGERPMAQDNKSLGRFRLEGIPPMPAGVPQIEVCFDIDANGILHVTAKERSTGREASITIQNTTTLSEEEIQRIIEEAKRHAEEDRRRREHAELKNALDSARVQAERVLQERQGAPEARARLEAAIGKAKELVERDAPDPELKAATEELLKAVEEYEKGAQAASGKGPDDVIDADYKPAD
Sequence of TK_NBD_T195A-B (Thermus thermophilus) (Q56235 other isoform, or with tags, fused parts or gaps T195A | T195A): as the sequence (Q56235 other isoform, or with tags, fused parts or gaps) above, with T195A counted along it
Sequence of TK_NBD_K69A-B (Thermus thermophilus) (Q56235 other isoform, or with tags, fused parts or gaps K69A | K69A): as the sequence (Q56235 other isoform, or with tags, fused parts or gaps) above, with K69A counted along it
Sequence of DnaK (P0A6Y8 2-638): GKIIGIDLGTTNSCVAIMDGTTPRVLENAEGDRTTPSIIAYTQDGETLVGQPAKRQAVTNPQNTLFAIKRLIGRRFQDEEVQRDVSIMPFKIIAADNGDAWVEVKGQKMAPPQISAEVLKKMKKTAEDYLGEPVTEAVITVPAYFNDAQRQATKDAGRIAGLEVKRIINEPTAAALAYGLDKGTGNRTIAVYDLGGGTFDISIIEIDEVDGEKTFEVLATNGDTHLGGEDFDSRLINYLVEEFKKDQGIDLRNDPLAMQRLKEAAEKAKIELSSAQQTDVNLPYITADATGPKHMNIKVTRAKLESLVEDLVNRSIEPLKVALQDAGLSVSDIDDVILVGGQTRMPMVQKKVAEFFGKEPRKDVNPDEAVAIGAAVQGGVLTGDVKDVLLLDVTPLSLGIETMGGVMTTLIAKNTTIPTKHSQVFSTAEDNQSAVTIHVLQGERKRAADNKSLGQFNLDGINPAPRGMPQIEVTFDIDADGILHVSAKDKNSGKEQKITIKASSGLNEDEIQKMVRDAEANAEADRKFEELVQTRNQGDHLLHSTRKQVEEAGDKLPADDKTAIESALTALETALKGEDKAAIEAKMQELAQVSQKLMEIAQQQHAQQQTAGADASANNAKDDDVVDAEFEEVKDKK
Sequence of ClpB (Escherichia coli) (P63284 whole entry): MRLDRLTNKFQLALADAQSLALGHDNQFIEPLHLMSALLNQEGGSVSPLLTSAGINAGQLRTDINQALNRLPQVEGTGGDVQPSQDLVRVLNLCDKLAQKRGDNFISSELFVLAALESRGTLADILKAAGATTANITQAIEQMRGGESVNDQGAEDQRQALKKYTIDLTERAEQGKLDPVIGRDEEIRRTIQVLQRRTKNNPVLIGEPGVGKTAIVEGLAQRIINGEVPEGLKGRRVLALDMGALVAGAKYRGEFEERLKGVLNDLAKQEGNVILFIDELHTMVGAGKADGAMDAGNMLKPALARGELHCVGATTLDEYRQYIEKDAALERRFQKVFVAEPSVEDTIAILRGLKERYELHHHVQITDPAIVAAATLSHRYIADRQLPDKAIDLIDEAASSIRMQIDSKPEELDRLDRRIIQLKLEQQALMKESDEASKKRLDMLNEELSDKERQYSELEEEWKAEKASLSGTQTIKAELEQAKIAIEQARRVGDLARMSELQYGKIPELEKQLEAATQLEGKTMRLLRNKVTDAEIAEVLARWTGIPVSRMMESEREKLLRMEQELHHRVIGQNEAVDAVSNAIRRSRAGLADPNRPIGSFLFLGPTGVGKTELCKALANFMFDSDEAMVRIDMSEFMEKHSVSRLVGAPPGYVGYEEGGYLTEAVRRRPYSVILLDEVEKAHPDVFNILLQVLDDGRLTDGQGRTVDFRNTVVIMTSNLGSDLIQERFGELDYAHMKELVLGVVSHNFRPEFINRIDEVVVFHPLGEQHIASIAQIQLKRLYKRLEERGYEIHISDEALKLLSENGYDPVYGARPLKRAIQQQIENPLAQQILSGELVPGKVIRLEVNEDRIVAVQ

Substance: DnaK (from UniProt P0A6Y8)
Kd (ClpB (Escherichia coli)): 25 µM

Substance: TK-B (from UniProt Q56235 1-615; Q9RA63 1-854)
ATPase activity of the fusion (TClpB portion stimulated by the fused TDnaK portion), 55 °C, 3 mM ATP, against unfused TClpB (times that of TClpB) [1]: 5

Substance: TK_ΔSBDα_K69A-B (from UniProt Q56235 1-501; Q9RA63 1-854)
ATPase activity of the fusion, 55 °C, 3 mM ATP, against TK K69A-B (fold of TK K69A-B) [3]: 1.5

Continued, values first:

ATPase activity of the fusion (TClpB portion stimulated by the fused NBD of TDnaK), 55 °C, 3 mM ATP, against TK-B [2]: 2 fold of TK-B
Substance: TK_NBD-B (from UniProt Q56235 1-377; Q9RA63 1-854)

ATPase stimulation of the fusion, 55 °C, 3 mM ATP [4]: 2 fold
Substance: TK_ΔSBDα_T195A-B (from UniProt Q56235 1-501; Q9RA63 1-854)

reactivation of heat-aggregated α-glucosidase by the fusion with unfused TDnaK, TDnaJ, TGrpE (TKJE) and 5 mM ATP, 55 °C, 90 min [5]: < 2%
reactivation of heat-aggregated α-glucosidase by the fusion with unfused TDnaK, TDnaJ, TGrpE (TKJE) and 5 mM ATP, 55 °C, 90 min [6]: < 2%
reactivation of heat-aggregated α-glucosidase by the fusion with unfused TDnaK, TDnaJ, TGrpE (TKJE) and 5 mM ATP, 55 °C, 90 min [7]: < 2%
rate of reactivation of heat-aggregated EYFP by the fusion with unfused TDnaK, TDnaJ, TGrpE (TKJE) and 5 mM ATP, 55 °C [8]: < 0.1 % min^-1
rate of reactivation of heat-aggregated EYFP by the fusion with unfused TDnaK, TDnaJ, TGrpE (TKJE) and 5 mM ATP, 55 °C [9]: < 0.1 % min^-1
rate of reactivation of heat-aggregated EYFP by the fusion with unfused TDnaK, TDnaJ, TGrpE (TKJE) and 5 mM ATP, 55 °C [10]: < 0.1 % min^-1
Substance: Thermus thermophilus DnaK (TDnaK) (from UniProt Q56235 1-615) (natural protein)
